The text below walks through data of paper PMC6828549 (Nature structural & molecular biology, 2019).

The target in the test is T1, His6-Nxf2 (full length), recombinant from insect cells (Drosophila melanogaster, UniProt Q9VV73 1-841).
T1 sequence: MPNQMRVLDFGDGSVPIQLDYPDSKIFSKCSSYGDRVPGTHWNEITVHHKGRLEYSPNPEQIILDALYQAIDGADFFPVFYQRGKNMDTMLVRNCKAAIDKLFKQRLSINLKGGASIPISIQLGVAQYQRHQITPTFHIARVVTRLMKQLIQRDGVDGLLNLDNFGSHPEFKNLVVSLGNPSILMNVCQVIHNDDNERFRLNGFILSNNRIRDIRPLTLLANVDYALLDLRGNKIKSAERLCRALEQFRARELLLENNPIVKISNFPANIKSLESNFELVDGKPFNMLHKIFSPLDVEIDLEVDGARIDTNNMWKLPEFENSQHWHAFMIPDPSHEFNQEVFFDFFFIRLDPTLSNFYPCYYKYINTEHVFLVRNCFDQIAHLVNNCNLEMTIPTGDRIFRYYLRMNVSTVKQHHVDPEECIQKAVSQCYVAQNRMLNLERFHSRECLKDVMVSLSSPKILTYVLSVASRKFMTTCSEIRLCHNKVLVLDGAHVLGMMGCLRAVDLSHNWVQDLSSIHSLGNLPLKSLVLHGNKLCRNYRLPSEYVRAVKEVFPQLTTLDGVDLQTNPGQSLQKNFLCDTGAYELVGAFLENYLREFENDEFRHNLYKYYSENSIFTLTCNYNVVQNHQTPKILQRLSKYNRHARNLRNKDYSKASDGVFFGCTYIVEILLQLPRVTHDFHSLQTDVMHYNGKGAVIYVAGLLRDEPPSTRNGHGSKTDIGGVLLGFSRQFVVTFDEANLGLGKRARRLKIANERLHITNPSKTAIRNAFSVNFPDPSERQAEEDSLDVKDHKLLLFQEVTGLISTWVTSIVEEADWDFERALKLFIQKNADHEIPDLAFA
Nature of the test: pull-down + SEC.

B1: Strep-tagged Panoramix fragment (263–446) (domain or fragment)
chain: ASSQNESSKERKLRDTELDYVPVRPDEHFIRPIKFSNLIERRPPQVEFNTVNLSKADKRSLAVARAELVLEQIQQKANKEEPPEFHMVDTICKLPVNESFRNQDCFENPSPICNNMNVVYKFNSTPGTRIDLSKWGLETVPEATKRLLRLLGIDVARLKELQSTVKPSQRILKLKKEQLEQGLA
Turning to B1, the binding result is “binds”.
